Source: patent publication US11242370B2, “Neuregulin-4 compounds and methods of use” (Eli Lilly and Company, priority 2019, dated 2022)
Marks after values point to notes of the source that are not given here.

B1: Example 10: NRG4 D1G/V22Q/E44K, (GGGGS)3 linker, SEQ ID NO: 19, fused to IgG Fc dimer SEQ ID NO: 6 and 7 (protein)
chain 1: GGGGSGGGGSGGGGSGHEEPCGPSHKSFCLNGGLCYQIPTIPSPFCRCVENYTGARCEKVFL
chain 2: ECPPCPAPPVAGPSVFLFPPKPKDTLMISRTPEVTCVVVDVSHEDPEVQFNWYVDGVEVHNAKTKPREEQFNSTFRVVSVLTVVHQDWLNGKEYKCKVSNKGLPAPIEKTISKTKGQPREPQVYTLPPSREEMTKNQVSLWCLVKGFYPSDIAVEWESNGQPENNYKTTPPVLDSDGSFFLYSKLTVDKSRWQQGNVFSCSVMHEALHNHYTQKSLSLSPG
chain 3: ECPPCPAPPVAGPSVFLFPPKPKDTLMISRTPEVTCVVVDVSHEDPEVQFNWYVDGVEVHNAKTKPREEQFNSTFRVVSVLTVVHQDWLNGKEYKCKVSNKGLPAPIEKTISKTKGQPREPQVYTLPPSREEMTKNQVSLSCAVKGFYPSDIAVEWESNGQPENNYKTTPPVLDSDGSFFLVSKLTVDKSRWQQGNVFSCSVMHEALHNHYTQKSLSLSPG

Experiments:
rat HER2/HER4 = target: T1, rat HER2/HER4 (Rattus norvegicus, UniProt Q62956); assay: Rat HER2/HER4 phospho-ERK 1/2 assay, purified proteins, CHO-K1 cells; format: cell-based; conditions: for % Maximal NRG1 activity: maximal signal relative to native human NRG1 per plate; for EC50: purified proteins, phospho-ERK1/2
T1 construct: expressed in transfected cells
Procedure: A cell based assay utilizing CHO-K1 cells overexpressing human or rat HER receptors is used to determine activity of NRG4 compounds. CHO-K1 cells (ATCC) are grown in DMEM-F12 3:1 with 5% FBS with 20 mM HEPES, 40 μg/mL L-Proline, lx antibiotics and were split 1:5 every 2-3 days with TripLE Express (Gibco). Cells are transfected with plasmid DNA encoding HER receptors in pairs (hHER2-3, hHER2-4, rHER2-3 and rHER2-4) with Fugene 6 (Promega) according to the manufacturer's instructions. […] Transfected cells are selected with Puromycin (12 ug/ml) and Hygromycin (1 mg/ml) for 3-4 weeks and clonal lines are obtained by limited dilution cloning into 96 well plates. Clonal lines are selected by appropriate gene expression of HER2, HER3 or HER4 by Taqman method. Lines with appropriate receptor expression are confirmed by NRG1 induced phospho-ERK 1/2 responses. Clones are grown up, harvested, aliquoted into cryovials and then frozen under liquid nitrogen for long-term storage.
A phospho-ERK1/2 activity assay is utilized with CHO-K1 cells overexpressing human or rat HER receptors to determine potencies and selectivity of purified NRG4 compounds. CHO-K1 cell lines expressing the human or rat HER receptors are cultured with selection medium (DMEM-F12 3:1 with 5% FBS with 20 mM HEPES, 40 μg/mL L-Proline, 1× antibiotics, 12 μg/mL puromycin, 1 mg/mL Hygromycin B). On Day −1 (the day before phospho-ERK1/2 assay), cells are washed once with PBS, detached with enzyme free cell dissociation solution (GIBCO cat #13151-014), and resuspended in plating medium (DMEM-F12 3:1 with 20 mM HEPES, lx antibiotics, 0.2% FBS). Cells are plated in a 96-well Poly-D-Lysine coated plate (BD cat #354640) at 10,000 cells per 0.1 mL per well. Cells are cultured in a tissue culture incubator at 37° C. 5% CO2 overnight. On Day 1 (the day of pERK1/2 assay), plates are incubated at room temperature for 30 min. The culture media are removed followed by addition of 504, ligand at various concentrations diluted in PBS-20 mM HEPES-0.005% BSA. Native human NRG1 and NRG4 peptides are purchased from Reprokine (Tampa, Fla.). The stimulation time is 30 min (except for hHER2-4 1H6 line in which 15 min is used for stimulation). At the end of stimulation, ligands are removed and 704, Lysis buffer (made according to manufacturer's recipe, Perkin Elmer cat #ALSU-PERK-A10K) is added. Plates are incubated at room temperature for 10 min on plate shaker with 350 rpm agitation, then on ice for 1 hour without shaking. 304, of cell lysis is transferred to a 96-well white Optiplate (Perkin Elmer cat #6002290) for phospho-ERK1/2 assay. Briefly 7.5 μL acceptor beads are added to 30 μL lysis in Optiplate. The plate is covered with aluminum foil and incubated at room temperature for 1 hour on plate shaker with 350 rpm agitation. Then 7.5 μL donor beads are added and the plate is covered with aluminum foil and incubated at room temperature for 2 hours on plate shaker with 350 rpm agitation or at 4° C. for overnight (warm up plate at room temperature for 2 h before reading). Alpha signal data are obtained on an Envision instrument (Alpha Technology-compatible plate reader). Donor beads and acceptor beads are made according to assay protocol. The data shown are generated with either the AlphaScreen SureFire p-ERK1/2 (Thr202/Tyr204) assay kit (Cat #TGRES50k) or the AlphaLISA® SureFire® Ultra™ p-ERK 1/2 (Thr202/Tyr204) assay kit (Perkin Elmer cat #ALSU-PERK-A10K). The activity of the NRG1 peptide was similar in both types of assays. Raw data obtained from the Envision instrument is imported into GraphPad Prism software (version 7). The EC50 value is generated by a variable slope-four parameter dose response curve. The % of maximal NRG1 activity data are generated by expressing the average maximal raw data for the NRG4 compound over the average maximal raw data for the native human NRG1 per plate and multiplying by 100. Data are provided below in Tables 7-9. N values reflect number of independent assays run. […]

[1] = system: rat model of heart failure with reduced ejection fraction (HFrEF); assay: Rat MI model, captopril, Example 10 or combination, echocardiography; format: in vivo; design: Left Ventricle Diameter (end diastole): unit not given here
Procedure: A nonclinical efficacy pharmacology study is conducted in a rat model of heart failure with reduced ejection fraction (HFrEF) to evaluate cardiac function and structure changes after captopril treatment, Example 10 treatment or combination treatment.
The left coronary artery is permanently ligated. All rats are individually housed in a temperature and humidity controlled room and maintained on a 12 hour light/dark cycle. Two to three weeks after surgery, rats undergo transthoracic echocardiography for determination of ejection fraction (EF %) and left ventricle dimensions (LVD) using a Vevo 2100 ultrasound system. Rats are randomized across treatment groups according to EF % and LVD.
Measurements of EF % and LVD are expressed as mean values±standard error (SE). Statistical analysis is performed with JMP® 13 software (SAS Institute, Inc.; Cary, N.C.) and Dunnett's Test is used for statistical comparisons across treatment groups. Statistical significance is accepted at P<0.05.
Three weeks after MI surgery, animals are randomized to 2 treatment groups (Placebo or captopril, 2 g/L in drinking water, ad lib) according to EF % and LVD. Three weeks and four weeks after dosing starts, cardiac function (EF %) and structure (LVD) are evaluated by transthoracic echocardiography. Animals are further randomized to additional groups based on cardiac function (EF %) and structure (LVD) to the following groups: Placebo, Example 10, captopril and Example 10+captopril. Animals in the Example 10 groups receive a single injection on week 4 after the 2nd randomization. Cardiac function (EF %) and structure (LVD) are evaluated on week 5 and 6.

[2] = Plasma pharmacokinetics in rats (toxicology studies); conditions: rat, in vivo, sc, 0.3 mg/kg
Procedure: Example 11 is administered in a single 3 mg/kg dose to male and female monkeys by SC bolus injection.

rats = assay: Toxicology study in rats, cardiac tissue inspection; conditions: single SC injection of 0.3 mg/kg
[3] = Week 4 (2nd randomization; before the single injection of Example 10)
[4] = Week 5 (single injection of Example 10 on week 4; captopril 2 g/L in drinking water)
[5] = Week 6 (single injection of Example 10 on week 4; captopril 2 g/L in drinking water)

T1 sequence (Q62956 26-1308): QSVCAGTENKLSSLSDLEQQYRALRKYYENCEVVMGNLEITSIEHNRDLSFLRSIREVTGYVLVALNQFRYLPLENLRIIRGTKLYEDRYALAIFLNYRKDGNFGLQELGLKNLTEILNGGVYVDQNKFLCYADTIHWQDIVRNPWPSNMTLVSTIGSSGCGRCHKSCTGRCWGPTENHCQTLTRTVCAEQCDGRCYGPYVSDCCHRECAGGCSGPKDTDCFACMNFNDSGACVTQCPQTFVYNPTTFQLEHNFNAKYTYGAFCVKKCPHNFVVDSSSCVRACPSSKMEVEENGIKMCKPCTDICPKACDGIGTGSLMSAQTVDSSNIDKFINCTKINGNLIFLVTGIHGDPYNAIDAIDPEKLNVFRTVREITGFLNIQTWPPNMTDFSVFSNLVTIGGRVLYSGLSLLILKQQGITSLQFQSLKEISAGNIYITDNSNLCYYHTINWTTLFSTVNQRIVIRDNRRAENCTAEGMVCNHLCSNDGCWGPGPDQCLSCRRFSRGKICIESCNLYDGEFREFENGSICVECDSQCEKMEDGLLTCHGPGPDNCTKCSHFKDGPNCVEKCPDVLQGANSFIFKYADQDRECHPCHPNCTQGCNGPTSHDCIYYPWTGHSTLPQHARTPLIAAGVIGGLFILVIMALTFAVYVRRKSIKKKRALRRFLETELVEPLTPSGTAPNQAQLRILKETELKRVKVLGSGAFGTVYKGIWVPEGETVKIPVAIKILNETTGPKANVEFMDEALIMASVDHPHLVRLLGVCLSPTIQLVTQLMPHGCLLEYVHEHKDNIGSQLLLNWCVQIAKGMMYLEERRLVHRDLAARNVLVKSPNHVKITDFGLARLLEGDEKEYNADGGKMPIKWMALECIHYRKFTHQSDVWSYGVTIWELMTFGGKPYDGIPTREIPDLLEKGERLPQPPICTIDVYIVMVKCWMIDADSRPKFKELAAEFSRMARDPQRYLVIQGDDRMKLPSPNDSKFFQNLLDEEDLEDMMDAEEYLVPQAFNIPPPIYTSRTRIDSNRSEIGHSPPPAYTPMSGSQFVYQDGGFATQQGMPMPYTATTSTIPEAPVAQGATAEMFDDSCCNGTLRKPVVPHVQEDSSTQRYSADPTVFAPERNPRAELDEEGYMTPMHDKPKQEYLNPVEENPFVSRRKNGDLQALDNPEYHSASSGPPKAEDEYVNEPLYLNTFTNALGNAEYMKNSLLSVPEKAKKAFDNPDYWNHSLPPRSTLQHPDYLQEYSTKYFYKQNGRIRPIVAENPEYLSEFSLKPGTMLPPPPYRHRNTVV
T1 sequence (P06494 23-1257 partner): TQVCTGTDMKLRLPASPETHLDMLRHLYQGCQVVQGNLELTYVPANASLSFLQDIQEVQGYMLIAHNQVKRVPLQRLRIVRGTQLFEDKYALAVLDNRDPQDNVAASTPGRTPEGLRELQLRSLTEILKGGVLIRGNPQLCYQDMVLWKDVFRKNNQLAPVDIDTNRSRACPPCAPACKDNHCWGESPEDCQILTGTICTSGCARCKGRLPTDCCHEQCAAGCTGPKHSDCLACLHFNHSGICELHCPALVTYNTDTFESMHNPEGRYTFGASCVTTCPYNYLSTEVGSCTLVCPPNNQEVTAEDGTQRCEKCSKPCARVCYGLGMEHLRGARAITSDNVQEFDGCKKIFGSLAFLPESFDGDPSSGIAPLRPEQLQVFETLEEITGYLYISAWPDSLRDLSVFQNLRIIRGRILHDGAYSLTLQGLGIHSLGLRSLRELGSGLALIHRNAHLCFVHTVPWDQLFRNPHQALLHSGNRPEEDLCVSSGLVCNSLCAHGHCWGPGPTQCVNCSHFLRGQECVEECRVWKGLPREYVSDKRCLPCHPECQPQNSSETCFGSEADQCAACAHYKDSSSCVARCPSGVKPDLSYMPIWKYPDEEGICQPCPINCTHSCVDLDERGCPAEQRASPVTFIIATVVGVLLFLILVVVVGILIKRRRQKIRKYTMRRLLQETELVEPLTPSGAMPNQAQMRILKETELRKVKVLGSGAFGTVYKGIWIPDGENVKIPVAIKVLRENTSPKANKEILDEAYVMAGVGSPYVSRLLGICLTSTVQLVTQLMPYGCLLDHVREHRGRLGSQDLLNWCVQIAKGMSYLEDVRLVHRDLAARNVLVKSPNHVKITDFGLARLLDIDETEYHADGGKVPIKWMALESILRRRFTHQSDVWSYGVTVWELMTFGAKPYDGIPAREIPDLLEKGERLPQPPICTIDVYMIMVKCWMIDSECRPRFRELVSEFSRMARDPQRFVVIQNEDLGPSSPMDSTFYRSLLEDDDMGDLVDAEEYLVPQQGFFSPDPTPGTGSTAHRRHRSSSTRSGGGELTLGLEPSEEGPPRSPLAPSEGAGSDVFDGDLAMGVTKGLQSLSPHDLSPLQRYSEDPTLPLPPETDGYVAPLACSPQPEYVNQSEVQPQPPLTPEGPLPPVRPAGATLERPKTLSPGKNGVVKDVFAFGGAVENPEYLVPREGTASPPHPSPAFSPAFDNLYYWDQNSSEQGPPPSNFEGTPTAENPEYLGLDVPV

| Molecule | % Maximal NRG1 activity (rat HER2/HER4) | EC50 (rat HER2/HER4) [nM] | Ejection Fraction [1, 3] [%] | Left Ventricle Diameter (end diastole) [1, 3] | Ejection Fraction [1, 4] | Left Ventricle Diameter (end diastole) [1, 4] | Ejection Fraction [1, 5] | Left Ventricle Diameter (end diastole) [1, 5] | duration of detectable plasma concentrations [2] [h] | inspections of tissue (cardiac toxicity) (rats) |
| --- | --- | --- | --- | --- | --- | --- | --- | --- | --- | --- |
| WT NRG1: wild type human NRG1; native peptide purchased from Reprokine in Tables 7-9; comparator in the screening assays of Tables 4 and 6 | 100% | 0.29 ± 0.05 | – | – | – | – | – | – | – | – |
| B1 | 88 ± 7 (N = 2) % | 0.12 ± 0.04 | 33.3 | 9.33 | 46.5* % | 9.35 | 46.0* % | 9.01 | > 168 | cardiac degeneration and necrosis |
